Test results: patent US12227771B2, “Expression systems and methods of use thereof” (Janssen Pharmaceutica NV, priority 2019, dated 2025)

B1: CHAT: Choline O-acetyltransferase, SEQ ID NO: 3, co-transfected cDNA clone (protein, listed as Homo sapiens)
chain: MAAKTPSSEESGLPKLPVPPLQQTLATYLQCMRHLVSEEQFRKSQAIVQQFGAPGGLGETLQQKLLERQEKTANWVSEYWLNDMYLNNRLALPVNSSPAVIFARQHFPGTDDQLRFAASLISGVLSYKALLDSHSIPTDCAKGQLSGQPLCMKQYYGLFSSYRLPGHTQDTLVAQNSSIMPEPEHVIVACCNQFFVLDVVINFRRLSEGDLFTQLRKIVKMASNEDERLPPIGLLTSDGRSEWAEARTVLVKDSTNRDSLDMIERCICLVCLDAPGGVELSDTHRALQLLHGGGYSKNGANRWYDKSLQFVVGRDGTCGVVCEHSPFDGIVLVQCTEHLLKHMTQSSRKLIRADSVSELPAPRRLRWKCSPEIQGHLASSAEKLQRIVKNLDFIVYKFDNYGKTFIKKQKCSPDAFIQVALQLAFYRLHRRLVPTYESASIRRFQEGRVDNIRSATPEALAFVRAVTDHKAAVPASEKLLLLKDAIRAQTAYTVMAITGMAIDNHLLALRELARAMCKELPEMFMDETYLMSNRFVLSTSQVPTTTEMFCCYGPVVPNGYGACYNPQPETILFCISSFHSCKETSSSKFAKAVEESLIDMRDLCSLLPPTESKPLATKEKATRPSQGHQP
B2: TMIE: Transmembrane inner ear expressed protein, SEQ ID NO: 4, co-transfected cDNA clone (protein, listed as Homo sapiens)
chain: MAGWPGAGPLCVLGGAALGVCLAGVAGQLVEPSTAPPKPKPPPLTKETVVFWDMRLWHVVGIFSLFVLSIIITLCCVFNCRVPRTRKEIEARYLQRKAAKMYTDKLETVPPLNELTEVPGEDKKKKKKKKKDSVDTVAIKVEEDEKNEAKKKKGEK
B3: TMEM132A: Transmembrane protein 132A, SEQ ID NO: 5, co-transfected cDNA clone (protein, listed as Homo sapiens)
chain: MCARMAGRTTAAPRGPYGPWLCLLVALALDVVRVDCGQAPLDPVYLPAALELLDAPEHFRVQQVGHYPPANSSLSSRSETFLLLQPWPRAQPLLRASYPPFATQQVVPPRVTEPHQRPVPWDVRAVSVEAAVTPAEPYARVLFHLKGQDWPPGSGSLPCARLHATHPAGTAHQACRFQPSLGACVVELELPSHWFSQASTTRAELAYTLEPAAEGPGGCGSGEENDPGEQALPVGGVELRPADPPQYQEVPLDEAVTLRVPDMPVRPGQLFSATLLLRHNFTASLLTLRIKVKKGLHVTAARPAQPTLWTAKLDRFKGSRHHTTLITCHRAGLTEPDSSPLELSEFLWVDFVVENSTGGGVAVTRPVTWQLEYPGQAPEAEKDKMVWEILVSERDIRALIPLAKAEELVNTAPLTGVPQHVPVRLVTVDGGGALVEVTEHVGCESANTQVLQVSEACDAVFVAGKESRGARGVRVDFWWRRLRASLRLTVWAPLLPLRIELTDTTLEQVRGWRVPGPAEGPAEPAAEASDEAERRARGCHLQYQRAGVRFLAPFAAHPLDGGRRLTHLLGPDWLLDVSHLVAPHARVLDSRVASLEGGRVVVGREPGVTSIEVRSPLSDSILGEQALAVTDDKVSVLELRVQPVMGISLTLSRGTAHPGEVTATCWAQSALPAPKQEVALSLWLSFSDHTVAPAELYDRRDLGLSVSAEEPGAILPAEEQGAQLGVVVSGAGAEGLPLHVALHPPEPCRRGRHRVPLASGTAWLGLPPASTPAPALPSSPAWSPPATEATMGGKRQVAGSVGGNTGVRGKFERAEEEARKEETEAREEEEEEEEEMVPAPQHVTELELGMYALLGVFCVAIFIFLVNGVVFVLRYQRKEPPDSATDPTSPQPHNWVWLGTDQEELSRQLDRQSPGPPKGEGSCPCESGGGGEAPTLAPGPPGGTTSSSSTLARKEAGGRRKRVEFVTFAPAPPAQSPEEPVGAPAVQSILVAGEEDIRWVCEDMGLKDPEELRNYMERIRGSS
B4: TMEM132C: Transmembrane protein 132C, SEQ ID NO: 6, co-transfected cDNA clone (protein, listed as Homo sapiens)
chain: MRSEGAAPGPAAPLCGALSLLLGALLGKVIEGHGVTDNIQRFSSLPPYLPVSYHILRAETSFFLKEANQDLLRNSSLQARVESFFTYKTRQPPVLNASYGPFSVEKVVPLDLMLTSNFLGPTNKFSFDWKLKAHILRDKVYLSRPKVQVLFHIMGRDWDDHGAGEKLPCLRVFAFRETREVRGSCRLKGDLGLCVAELELLSSWFSAPTVGAGRKKSMDQPEGTPVELYYTVHPGNERGDCAGGDFRKGNAIRPGKDGLEETTSHLQRIGTVGLYRAQDSAQLSELRLDGNVVIWLPSRPVKQGEVVTAYVTISSNSSVDLFILRAKVKKGVNILSAQTREPRQWGVKQEVGSGGKHVTATVACQRLGPSPRNRSSSLFNEVVQMNFEIASFSSLSGTQPITWQVEYPRKGTTDIAVSEIFVSQKDLVGIVPLAMDTEILNTAVLTGKTVAMPIKVVSVEENSAVMDISESVECKSTDEDVIKVSERCDYIFVNGKEIKGKMDAVVNFTYQYLSAPLCVTVWVPRLPLQIEVSDTELSQIKGWRVPIVTNKRPTRESEDEDEEERRGRGCALQYQHATVRVLTQFVSEGAGPWGQPNYLLSPNWQFDITHLVADFMKLEEPHVATLQDSRVLVGREVGMTTIQVLSPLSDSILAEKTITVLDDKVSVTDLAIQLVAGLSVALYPNAENSKAVTAVVTAEEVLRTPKQEAVFSTWLQFSDGSVTPLDIYDTKDFSLAATSQDEAVVSVPQPRSPRWPVVVAEGEGQGPLIRVDMTIAEACQKSKRKSILAVGVGNVRVKFGQNDADSSPGGDYEEDEIKNHASDRRQKGQHHERTGQDGHLYGSSPVEREEGALRRATTTARSLLDNKVVKNSRADGGRLAGEGQLQNIPIDFTNFPAHVDLPKAGSGLEENDLVQTPRGLSDLEIGMYALLGVFCLAILVFLINCATFALKYRHKQVPLEGQASMTHSHDWVWLGNEAELLESMGDAPPPQDEHTTIIDRGPGACEESNHLLLNGGSHKHVQSQIHRSADSGGRQGREQKQDPLHSPTSKRKKVKFTTFTTIPPDDSCPTVNSIVSSNDEDIKWVCQDVAVGAPKELRNYLEKLKDKA

Biological target: T1, human α9α10 nAChR (Homo sapiens, UniProt Q9GZZ6+Q9UGM1)
T1 construct: expressed in transfected cells; host or cells: HEK293T
Test: FLIPR calcium assay of HEK293T cells co-transfected with α9α10 nAChR and cDNA clones, response evoked by 200 μM ACh
Assay type: cell-based
Details: for FLIPR response evoked by 200 μM ACh: HEK293T transfected with α9α10 nAChR and the named protein; for functional expression of co-transfected α9α10 nAChR in cDNA library screen: HEK293T, 20,000 cDNA clones; for functional expression of co-transfected α9α10 nAChR in cDNA library screen / combined effect of TMIE and CHAT on functional responses from α9α10 nAChR / FLIPR Response (Fold/Baseline): 200 μM ACh; for combined effect of TMIE and CHAT on functional responses from α9α10 nAChR: HEK293T; for FLIPR Response (Fold/Baseline): 180 s
Procedure: Human embryonic kidney 293T (HEK293T) cells were cultured in high glucose DMEM medium supplemented with 10% FBS, sodium pyruvate and penicillin/streptomycin. Prior to transfection, cells were seeded at ˜80-90% confluence in 384-well fluorescence imaging plate reader (FLIPR) assay plates. After a 4 hour (hr) incubation, wells of cells were individually co-transfected with human α9α10 nAChR plus one of 20,000 clones from cDNA libraries encoding most all human proteins (Origene Technologies; Rockville, Md.; Broad Institute; Cambridge, Mass.) using Fugene HD (Promega; Madison, Wis.) according to the manufacture's protocol. After two days incubation, cells were washed three times with assay buffer (137 mM NaCl, 4 mM KCl, 2 mM CaCl2, 1 mM MgCl2, 5 mM glucose, 10 mM HEPES pH7.4) and loaded with Calcium5 dye (Molecular Devices; San Jose, Calif.) and 1.25 mM probenecid for 1 hr at room temperature (RT). After three washes, the plates were placed in the FLIPR stage.
To further characterize the regulation of α9α10 nAChR expression, HEK293T cells were co-transfected with α9α10 nAChR and each of CHAT, TMIE, TMEM100, TMEM132A, TMEM132C, TMEM132D, TMEM132E and TNFRSF10A individually and in combination (Table 2).

[1] = HEK293T co-transfected with α9α10 nAChR + CHAT plus the named gene
[2] = HEK293T co-transfected with α9α10 nAChR plus the named gene

T1 sequence (Q9UGM1 23-479): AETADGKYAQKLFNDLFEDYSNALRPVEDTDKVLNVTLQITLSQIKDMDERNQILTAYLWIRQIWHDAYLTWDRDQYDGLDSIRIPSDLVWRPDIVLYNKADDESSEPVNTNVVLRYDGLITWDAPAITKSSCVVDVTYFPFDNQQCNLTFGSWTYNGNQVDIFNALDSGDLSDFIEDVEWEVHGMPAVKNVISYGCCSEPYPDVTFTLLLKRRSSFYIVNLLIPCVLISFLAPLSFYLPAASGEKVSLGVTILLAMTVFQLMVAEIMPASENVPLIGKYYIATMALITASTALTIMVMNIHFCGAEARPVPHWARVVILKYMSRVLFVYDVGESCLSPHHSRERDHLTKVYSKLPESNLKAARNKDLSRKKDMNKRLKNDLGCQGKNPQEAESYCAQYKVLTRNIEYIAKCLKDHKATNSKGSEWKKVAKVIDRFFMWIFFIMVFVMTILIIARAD
T1 sequence (Q9GZZ6 25-450): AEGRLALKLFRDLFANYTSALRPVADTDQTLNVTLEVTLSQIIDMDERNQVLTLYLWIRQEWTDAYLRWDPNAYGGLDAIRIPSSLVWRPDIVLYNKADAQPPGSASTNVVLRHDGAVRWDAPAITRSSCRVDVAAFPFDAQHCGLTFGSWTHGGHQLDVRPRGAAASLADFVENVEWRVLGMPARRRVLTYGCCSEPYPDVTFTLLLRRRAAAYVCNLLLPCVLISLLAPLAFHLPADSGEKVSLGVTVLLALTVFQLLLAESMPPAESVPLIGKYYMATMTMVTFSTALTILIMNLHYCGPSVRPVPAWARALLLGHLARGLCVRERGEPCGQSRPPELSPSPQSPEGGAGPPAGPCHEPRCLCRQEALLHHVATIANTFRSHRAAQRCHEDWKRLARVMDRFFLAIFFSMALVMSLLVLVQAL

| Molecule | FLIPR response evoked by 200 μM ACh | functional expression of co-transfected α9α10 nAChR in cDNA library screen | combined effect of TMIE and CHAT on functional responses from α9α10 nAChR | FLIPR Response (Fold/Baseline) [1] [Fold/Baseline] | FLIPR Response (Fold/Baseline) [2] [Fold/Baseline] |
| --- | --- | --- | --- | --- | --- |
| B1 | significant FLIPR responses | enabled functional expression | synergized to enhance functional responses | – | – |
| B2 | significant FLIPR responses | enabled functional expression | synergized to enhance functional responses | 2.2 | 0.7 |
| B3 | – | enabled functional expression | – | 2.5 | 0.3 |
| B4 | – | enabled functional expression | – | 2.0 | 0.7 |
